Results reported in US20120159674A1.

Biological target: Cry1Ab receptor proteins in brush border membrane vesicle (BBMV) preparations from the midgut of Heliothis zea larvae
Assay: homologous competition with 0.25 nM ^125I Cry1Ab on H. zea BBMV (0.10 mg protein/ml)

Substance “Cry1Ab core toxin (trypsin truncated Cry1Ab)” has an IC50 of 2 nM.
